In PMC5408392:

How the values were obtained:
Test in all cases: SEC-MALS; SEC followed by multiangle light scattering of the SEC-purified Δ123 species
[1] = target: Δ123 E2 high-molecular-weight form 2 (HMW2, G1a strain H77c) (hepatitis C virus genotype 1a, strain H77c) (UniProt P27958)
[2] = target: Δ123 E2 dimer (G1a strain H77c) (hepatitis C virus genotype 1a, strain H77c) (UniProt P27958)
[3] = target: Δ123 E2 high-molecular-weight form 1 (HMW1, G1a strain H77c) (hepatitis C virus genotype 1a, strain H77c) (UniProt P27958)

For “Δ123 E2 high-molecular-weight form 2 (HMW2, G1a strain H77c) (from UniProt P27958 384-661) (domain or fragment)”, the stoichiometry N [1] was 5.1.

“Δ123 E2 dimer (G1a strain H77c) (from UniProt P27958 384-661) (domain or fragment)” showed a stoichiometry N [2] of 2.1.

With “Δ123 E2 high-molecular-weight form 1 (HMW1, G1a strain H77c) (from UniProt P27958 384-661) (domain or fragment)” the stoichiometry N [3] was 51.6.
